Data as given in patent publication US20240117018A1.

How the values were obtained:
Experiment in all cases: cell-based or functional assay
[1] = biological target: HIV-1 Env of pseudovirus 0260.v5.c36 (HIV-1)
[2] = biological target: HIV-1 Env of pseudovirus 3415.v1.c1 (HIV-1)
[3] = biological target: HIV-1 Env of pseudovirus CNE5 (HIV-1)
[4] = biological target: HIV-1 Env of pseudovirus CNE8 (HIV-1)
[5] = biological target: HIV-1 Env of pseudovirus T250-4 (HIV-1)
[6] = biological target: HIV-1 Env of pseudovirus 1006_11_C3_1601 (HIV-1)
[7] = biological target: HIV-1 Env of pseudovirus 1012_11_TC21_3257 (HIV-1)
[8] = biological target: HIV-1 Env of pseudovirus 249M B10 (HIV-1)
[9] = biological target: HIV-1 Env of pseudovirus 62357_14_D3_4589 (HIV-1)
[10] = biological target: HIV-1 Env of pseudovirus 6240_08_TA5_4622 (HIV-1)
[11] = biological target: HIV-1 Env of pseudovirus 6535.3 (HIV-1)
[12] = biological target: HIV-1 Env of pseudovirus 7030102001E5(Rev-) (HIV-1)
[13] = biological target: HIV-1 Env of pseudovirus AC10.0.29 (HIV-1)
[14] = biological target: HIV-1 Env of pseudovirus CNE17 (HIV-1)
[15] = biological target: HIV-1 Env of pseudovirus CNE20 (HIV-1)
[16] = biological target: HIV-1 Env of pseudovirus CNE53 (HIV-1)
[17] = biological target: HIV-1 Env of pseudovirus Ce0682_E4 (HIV-1)
[18] = biological target: HIV-1 Env of pseudovirus Ce2010_F5 (HIV-1)
[19] = biological target: HIV-1 Env of pseudovirus Ce2060_G9 (HIV-1)
[20] = biological target: HIV-1 Env of pseudovirus Du156.12 (HIV-1)
[21] = biological target: HIV-1 Env of pseudovirus Du172.17 (HIV-1)
[22] = biological target: HIV-1 Env of pseudovirus HIV-001428-2.42 (HIV-1)
[23] = biological target: HIV-1 Env of pseudovirus HIV-16055-2.3 (HIV-1)
[24] = biological target: HIV-1 Env of pseudovirus Q23.17 (HIV-1)
[25] = biological target: HIV-1 Env of pseudovirus Q259.d2.17 (HIV-1)
[26] = biological target: HIV-1 Env of pseudovirus Q461.e2 (HIV-1)
[27] = biological target: HIV-1 Env of pseudovirus Q769.d22 (HIV-1)
[28] = biological target: HIV-1 Env of pseudovirus RHPA4259.7 (HIV-1)
[29] = biological target: HIV-1 Env of pseudovirus SC422661.8 (HIV-1)
[30] = biological target: HIV-1 Env of pseudovirus TRJO4551.58 (HIV-1)
[31] = biological target: HIV-1 Env of pseudovirus TRO.11 (HIV-1)
[32] = biological target: HIV-1 Env of pseudovirus WEAU_d15_410_787 (HIV-1)
[33] = biological target: HIV-1 Env of pseudovirus ZM135M.PL10a (HIV-1)
[34] = biological target: HIV-1 Env of pseudovirus ZM214M.PL15 (HIV-1)
[35] = biological target: HIV-1 Env of pseudovirus ZM233M.PB6 (HIV-1)
[36] = biological target: HIV-1 Env of pseudovirus ZM247v1(Rev-) (HIV-1)
[37] = biological target: HIV-1 Env of pseudovirus ZM249M.PL1 (HIV-1)
[38] = biological target: HIV-1 Env of pseudovirus ZM53M.PB12 (HIV-1)

Substance: N49P9.1 (antibody)
- neutralization IC50 [1]: 0.519 µg/mL
- neutralization IC80 [1]: 0.151 µg/mL
- neutralization MPI [1]: 100
- neutralization IC50 [2]: 0.21 µg/mL
- neutralization IC80 [2]: 1.37 µg/mL
- neutralization MPI [2]: 100
- neutralization IC50 [3]: 0.183 µg/mL
- neutralization IC80 [3]: 0.641 µg/mL
- neutralization MPI [3]: 100
- neutralization IC50 [4]: 0.228 µg/mL
- neutralization IC80 [4]: 0.921 µg/mL
- neutralization MPI [4]: 100
- neutralization IC50 [5]: > 50 µg/mL
- neutralization IC80 [5]: > 50 µg/mL
- neutralization MPI [5]: 7

Substance: N49P19 (antibody)
- neutralization IC50 [1]: 1.25 µg/mL
- neutralization IC80 [1]: 8.52 µg/mL
- neutralization MPI [1]: 99
- neutralization IC50 [2]: 0.462 µg/mL
- neutralization IC80 [2]: 2.04 µg/mL
- neutralization MPI [2]: 100
- neutralization IC50 [3]: 0.748 µg/mL
- neutralization IC80 [3]: 3.29 µg/mL
- neutralization MPI [3]: 100
- neutralization IC50 [4]: 0.772 µg/mL
- neutralization IC80 [4]: 4.84 µg/mL
- neutralization MPI [4]: 97
- neutralization IC50 [5]: > 50 µg/mL
- neutralization IC80 [5]: > 50 µg/mL
- neutralization MPI [5]: 7

Substance: NIH 45-46 (antibody)
- IC50 [6]: 0.05 µg/mL
- IC80 [6]: 0.31 µg/mL
- IC50 [7]: 0.01 µg/mL
- IC80 [7]: 0.04 µg/mL
- IC50 [8]: 0.04 µg/mL
- IC80 [8]: 0.17 µg/mL
- IC50 [2]: 0.07 µg/mL
- IC80 [2]: 0.07 µg/mL
- IC50 [9]: 0.05 µg/mL
- IC80 [9]: 0.22 µg/mL
- IC50 [10]: 0.44 µg/mL
- IC80 [10]: 1.55 µg/mL
- IC50 [11]: 0.14 µg/mL
- IC80 [11]: 0.28 µg/mL
- IC50 [12]: 0.14 µg/mL
- IC80 [12]: 0.63 µg/mL
- IC50 [13]: 0.42 µg/mL
- IC80 [13]: 1.49 µg/mL
- IC50 [14]: 0.15 µg/mL
- IC80 [14]: 0.55 µg/mL
- IC50 [15]: 8.71 µg/mL
- IC80 [15]: 47 µg/mL
- IC50 [16]: 0.01 µg/mL
- IC80 [16]: 0.04 µg/mL
- IC50 [17]: 0.07 µg/mL
- IC80 [17]: 0.25 µg/mL
- IC50 [18]: 0.13 µg/mL
- IC80 [18]: 0.43 µg/mL
- IC50 [19]: 0.14 µg/mL
- IC80 [19]: 0.48 µg/mL
- IC50 [20]: 0.01 µg/mL
- IC80 [20]: 0.05 µg/mL
- IC50 [21]: > 30 µg/mL
- IC80 [21]: > 30 µg/mL
- IC50 [22]: < 0.001 µg/mL
- IC80 [22]: 0.01 µg/mL
- IC50 [23]: 0.02 µg/mL
- IC80 [23]: 0.06 µg/mL
- IC50 [24]: 0.14 µg/mL
- IC80 [24]: 0.6 µg/mL
- IC50 [25]: 0.01 µg/mL
- IC80 [25]: 0.06 µg/mL
- IC50 [26]: 0.06 µg/mL
- IC80 [26]: 0.32 µg/mL
- IC50 [27]: 0.01 µg/mL
- IC80 [27]: 0.04 µg/mL
- IC50 [28]: < 0.05 µg/mL
- IC80 [28]: < 0.05 µg/mL
- IC50 [29]: 0.01 µg/mL
- IC80 [29]: 0.07 µg/mL
- IC50 [30]: 0.01 µg/mL
- IC80 [30]: 0.05 µg/mL
- IC50 [31]: 1.9 µg/mL
- IC80 [31]: 9.56 µg/mL
- IC50 [32]: 0.01 µg/mL
- IC80 [32]: 0.03 µg/mL
- IC50 [33]: 0.36 µg/mL
- IC80 [33]: 3.11 µg/mL
- IC50 [34]: 0.05 µg/mL
- IC80 [34]: 0.39 µg/mL
- IC50 [35]: 1.86 µg/mL
- IC80 [35]: 16.5 µg/mL
- IC50 [36]: 1.64 µg/mL
- IC80 [36]: > 50 µg/mL
- IC50 [37]: 0.02 µg/mL
- IC80 [37]: 0.06 µg/mL
- IC50 [38]: 0.65 µg/mL
- IC80 [38]: 0.65 µg/mL

Substance: PG9 (antibody)
- IC50 neutralization (TZM.bl) [3]: 0.018 µg/mL
- IC80 neutralization (TZM.bl) [3]: 0.051 µg/mL

Substance: PG16 (antibody)
- IC50 neutralization (TZM.bl) [3]: 0.008 µg/mL
- IC80 neutralization (TZM.bl) [3]: 0.033 µg/mL
